Experimental data as given in patent publication US9682013B2, “Pharmaceutical compositions comprising human antibodies to PCSK9” (SANOFI BIOTECHNOLOGY, priority 2011, dated 2017).

Assays:
hPCSK9 D238 mutated = hPCSK9 D238 mutated (Homo sapiens, UniProt Q8NBP7, D238R); details: cited from earlier work
hPCSK9 = hPCSK9 (Homo sapiens, UniProt Q8NBP7); details: unmutated hPCSK9; cited from earlier work
[1] = system: patients with Heterozygous Familial Hypercholesterolemia (HeFH) or other forms of primary hypercholesteremia (nonFH); test: Study 3: randomized, placebo-controlled, multiple ascending dose trial of 316P in HeFH and nonFH; assay type: in vivo, human; details: for mean % reduction in LDL-C on day 57: on top of statins, combined FH and nonFH populations
Description: This is a randomized, double-blind, placebo-controlled, multiple ascending dose, multicenter clinical trial in subjects with primary hypercholesterolemia.
The objective of this study was to determine whether a fully human monoclonal antibody to PCSK9 (316P) is effective and safe as either a primary or adjunctive agent to lower LDL-C in patients with Heterozygous Familial Hypercholesterolemia (HeFH) or other forms of primary hypercholesteremia (nonFH). 61 adults with either documented HeFH (n=21) or nonFH (n=30), on diet plus stable atorvastatin therapy (atorvaRx) or nonFH (n=10) on diet alone enrolled in this clinical trial. Subjects on stable atorvastatin therapy had LDL-C≧2.6 mmol/L and those on diet alone had LDL-C≧3.4 mmol/L. 316P at doses of 50, 100 and 150 mg was administered subcutaneously (sc) at 1, 29 and 43 days. The primary endpoint was the incidence and severity of treatment emergent adverse events (TEAE). The primary efficacy endpoint was percent and absolute change in serum LDL-C from baseline to each visit. Additional endpoints included apolipoprotein (apo) B, total cholesterol, HDL-C, VLDL-C, and the ratio of apoB to apoA1. 109 patients were screened, and 61 patients were randomized (14 placebo, 47 316P) with 100% completing 148+/−7 days of treatment and follow up. Compared to the nonFH cohort, the FH group was younger (mean 40 vs. 52 yrs), had more males (81% vs. 57%) and was on higher doses of atorvastatin (52% on 40 mg vs. 3%). Baseline LDL-C was 3.45, 2.88 and 4.46 mmol/L in the FH, nonFH atorvaRx and nonFH diet only groups, respectively.

hPCSK9 D238 mutated, sequence (Q8NBP7 153-692 D238R): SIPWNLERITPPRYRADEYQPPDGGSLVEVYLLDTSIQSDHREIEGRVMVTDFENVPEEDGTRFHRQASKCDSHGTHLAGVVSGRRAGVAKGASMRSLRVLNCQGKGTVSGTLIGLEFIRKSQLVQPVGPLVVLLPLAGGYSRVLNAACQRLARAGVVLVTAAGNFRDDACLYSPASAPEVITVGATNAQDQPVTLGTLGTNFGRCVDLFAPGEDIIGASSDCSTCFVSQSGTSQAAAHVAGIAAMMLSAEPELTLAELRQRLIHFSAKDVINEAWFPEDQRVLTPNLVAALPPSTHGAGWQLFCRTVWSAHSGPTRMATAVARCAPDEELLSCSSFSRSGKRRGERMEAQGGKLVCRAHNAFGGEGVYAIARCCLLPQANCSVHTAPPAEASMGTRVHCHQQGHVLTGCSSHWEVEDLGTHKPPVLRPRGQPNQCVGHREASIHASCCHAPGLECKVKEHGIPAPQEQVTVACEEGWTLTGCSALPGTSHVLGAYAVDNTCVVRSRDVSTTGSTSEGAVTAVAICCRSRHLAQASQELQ
hPCSK9, sequence (Q8NBP7 153-692): as the sequence (Q8NBP7 153-692 D238R) above, with R86D counted along it

In the case of “316P: fully human anti-PCSK9 antibody comprising a HCVR as shown in SEQ ID NO: 90 and LCVR as shown in SEQ ID NO: 92 [Antibody 316P]”, the T1/2 decrease (hPCSK9 D238 mutated; D238 mutated vs unmutated) is listed as greater than 30 fold, the “reduction in binding affinity” value (hPCSK9 D238 mutated; D238 mutated vs unmutated) is listed as greater than 400 fold and the Kd (hPCSK9 D238 mutated; D238 mutated) is listed as roughly 410 nM. The Kd (hPCSK9) was roughly 1 nM, the “mean % reduction in LDL-C on day 57” value ([1]; 50 mg sc at days 1, 29 and 43) was 35.6% and the “mean % reduction in LDL-C on day 57” value ([1]; 100 mg sc at days 1, 29 and 43) was 50.2%. For the same substance, the “mean % reduction in LDL-C on day 57” value ([1]; 150 mg sc at days 1, 29 and 43) was 57.5%, the “HDL-C” value ([1]; 50, 100 and 150 mg sc) was “Favourable changes” and the “apoA1” value ([1]; 50, 100 and 150 mg sc) was “Favourable changes”. The “liver function testing or other laboratory parameters” value ([1]; 50, 100 and 150 mg sc) was “No drug-related adverse effects”, the serious adverse events ([1]; 50, 100 and 150 mg sc) was “No serious adverse events” and the tolerability ([1]; 50, 100 and 150 mg sc) was “generally well-tolerated”. The “response between FH and nonFH or those on or not on statin therapy” value ([1]; no statistical analysis performed) was “did not appear to be differences in response”.
